{"source": "paper PMC3744504", "about": "“Soluble Variants of Human Recombinant Glutaminyl Cyclase” (PLoS ONE, 2013)", "proteins": {"B1": {"name": "wild type human Glutaminyl Cyclase (hQPCT), Ala33-Leu361, His6-tagged (enzyme, UniProt Q16769 33-361, looked up)", "chain": "ASAWPEEKNYHQPAILNSSALRQIAEGTSISEMWQNDLQPLLIERYPGSPGSYAARQHIMQRIQRLQADWVLEIDTFLSQTPYGYRSFSNIISTLNPTAKRHLVLACHYDSKYFSHWNNRVFVGATDSAVPCAMMLELARALDKKLLSLKTVSDSKPDLSLQLIFFDGEEAFLHWSPQDSLYGSRHLAAKMASTPHPPGARGTSQLHGMDLLVLLDLIGAPNPTFPNFFPNSARWFERLQAIEHELHELGLLKDHSLEGRYFQNYSYGGVIQDDHIPFLRRGVPVLHLIPSPFPEVWHTMDDNEENLDESTIDNLNKILQVFVLEYLHL", "notes": "human glutaminyl-peptide cyclotransferase (glutaminyl cyclase), residues Ala33-Leu361, cloned in pQE80L; Not glycosylated (E. coli); Apo-protein mass by MALDI 38735 Da; No preparative size exclusion step was applied to the wild type; also called wild type hQPCT; Glutaminyl-peptide Cyclotransferase; not shown: His6, N-terminal, kept"}}, "target": "the molecule itself", "test": "SEC; analytical size exclusion chromatography (Superdex 5/150 column) on 50 µl of sample after the Ni-affinity step", "data": [{"protein": "B1", "values": [{"measurement": "binding result", "result": "binds"}]}]}
